According to patent US20230069996A1:

Assays:
[1] = target: IL-22 receptors on COLO205 cells (UniProt Q8N6P7)
[2] = target: IL-22 receptors on COLO205 cells (UniProt Q8N6P7); remark: listed apart in the source

Sequence of IL-22 receptors on COLO205 cells (Q8N6P7 16-574 limits assumed, chain 1 of 2): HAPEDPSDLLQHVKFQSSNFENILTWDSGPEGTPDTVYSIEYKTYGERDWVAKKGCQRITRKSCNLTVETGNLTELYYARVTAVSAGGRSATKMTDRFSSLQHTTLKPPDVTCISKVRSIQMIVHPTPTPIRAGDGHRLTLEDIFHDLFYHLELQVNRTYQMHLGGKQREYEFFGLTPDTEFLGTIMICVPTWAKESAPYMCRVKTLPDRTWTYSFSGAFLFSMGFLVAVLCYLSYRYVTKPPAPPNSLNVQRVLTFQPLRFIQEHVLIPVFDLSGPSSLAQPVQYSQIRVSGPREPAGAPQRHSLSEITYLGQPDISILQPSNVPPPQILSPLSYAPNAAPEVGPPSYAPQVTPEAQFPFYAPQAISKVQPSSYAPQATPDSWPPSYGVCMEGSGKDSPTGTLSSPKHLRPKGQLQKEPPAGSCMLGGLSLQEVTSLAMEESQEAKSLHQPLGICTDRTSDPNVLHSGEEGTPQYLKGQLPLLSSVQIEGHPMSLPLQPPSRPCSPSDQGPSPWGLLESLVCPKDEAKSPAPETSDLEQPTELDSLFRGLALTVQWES
Sequence of IL-22 receptors on COLO205 cells (Q08334 20-325 limits assumed, chain 2 of 2, further chain): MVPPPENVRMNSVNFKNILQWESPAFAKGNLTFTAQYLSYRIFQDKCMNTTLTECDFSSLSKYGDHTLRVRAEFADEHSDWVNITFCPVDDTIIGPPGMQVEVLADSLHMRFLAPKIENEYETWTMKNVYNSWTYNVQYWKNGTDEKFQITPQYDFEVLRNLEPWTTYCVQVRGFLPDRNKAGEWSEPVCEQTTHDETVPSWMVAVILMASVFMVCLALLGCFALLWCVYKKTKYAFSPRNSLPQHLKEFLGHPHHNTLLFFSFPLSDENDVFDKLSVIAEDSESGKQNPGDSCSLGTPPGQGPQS

EC50 (read off the curve) of IL-10 secretion by COLO205 cells, human IL-22 without uPA [1]: 0.08 nM
EC50 (read off the curve) of IL-10 secretion by COLO205 cells, human IL-22 incubated with uPA [2]: 0.05 nM
Substance: human IL-22 (from UniProt Q9GZX6) (ligand)
